Source: patent publication US20050214890

Test system: GST-RFP-SPSS/FXa-GFP-His6 fluorescent fusion protein [GST: P08515]

## coagulation factor Xa
  SDS-PAGE and Western blot of substrate cleavage products (GST-RFP and GFP-His): demonstrated specific cleavage of the substrate by FXa, as the amounts of the native proteins decreased while the amounts of the two truncated products (GST-RFP and GFP-His) increased with increasing concentrations of FXa
